The values below are quoted from earlier work in US7410776B2, “Polypeptides, their production and use” (Takeda Pharmaceutical Company Limited, priority 1997, dated 2008).

The target of the data set is T1, APJ (Homo sapiens, UniProt P35414).
T1 construct: host or cells: CHO cells
T1 sequence (P35414 1-380): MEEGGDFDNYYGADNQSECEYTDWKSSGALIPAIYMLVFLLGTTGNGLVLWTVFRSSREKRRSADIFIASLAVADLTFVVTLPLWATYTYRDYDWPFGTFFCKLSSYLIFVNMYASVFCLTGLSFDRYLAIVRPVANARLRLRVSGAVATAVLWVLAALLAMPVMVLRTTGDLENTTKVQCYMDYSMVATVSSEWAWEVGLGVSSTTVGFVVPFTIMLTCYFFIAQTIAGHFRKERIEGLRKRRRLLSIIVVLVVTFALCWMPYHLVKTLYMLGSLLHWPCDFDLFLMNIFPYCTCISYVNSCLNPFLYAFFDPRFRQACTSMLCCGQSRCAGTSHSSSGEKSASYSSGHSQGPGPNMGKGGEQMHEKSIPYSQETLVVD
To be noted: APJ expressed in CHO cells.

Take “angiotensin II (DRVYIHPF; Angiotensin-2; UniProt P01019 25-32, looked up) [known peptide tested on APJ expressed in CHO cells]”: the “reaction with APJ” value is “no reaction was detected at all”.
